Data on 31 molecules can be found in patent publication US20160075790A1 (Bristol-Myers Squibb, published 2016).

The labels stand for the following.
B1: BMS2h-757 (other)
VH: EVQLLESGGGLVQPGGSLRLSCAASGFTFKEYNMAWVRQAPGKGLEWVSSINFAGRTTYYADSVKGRFTISRDNSKNTLYLQMNSLRAEDTAVYYCAKLSLPLDIFSFDYWGQGTLVTVSS
B2: BMS2h-744 (other)
VH: EVQLLESGGGLVQPGGSLRLSCAASGFTFKEHDMFWVRQAPGKGLEWVSGIGAEGVWTYYADSVKGRFTISRDNSKNTLYLQMNSLRAEDTAVYYCAEPTMSNGSQSRFDYWGQGTLVTVSS
B3: BMS2h-758 (other)
VH: EVQLLESGGGLVQPGGSLRLSCAASGFTFGDYGMNWVRQAPGKGLEWVSHISSNGRFTYYADSVKGRFTISRDNSKNTLYLQMNSLRAEDTAVYYCAETSGYFDYWGQGTLVTVSS
B4: BMS2h-758-4 (other)
VH: EVQLLESGGGLVQPGGSLRLSCAASGFTFGDYGMNWVRQAPGKGLEWVSHISSNGRFTYYADSVKGRFTISRDNSKNTLFLQMNSLRAEDTAVYYCAETSGYYEYWGHGTLVTVSS
B5: BMS2h-758-2 (other)
VH: EVQLLESGGGLVQPGGSLRLSCAASGFTFGDYGMNWVRQAPGKGLEWVSHISSNGRFTYYADSVKGRFTISRDNSKNTLYLQMNSLRAEDTAVYYCAETSGYFEYWGQGTLVTVSS
B6: BMS2h-758-5 (other)
VH: EVQLLESGGGLVQPGGSLRLSCAASGFAFGDYGMNWVRQAPGKGLEWVSHISSNGRFTYYADSVKGRFTISRDNSKNTLYLQMNSLRAEDTAVYYCAETSGYFEYWGQGTLVTVSS
B7: BMS2h-758-1 (other)
VH: EVQLLESGGGLVQPGGSLRLSCAASGFTFGDYGMNWVRQAPGKGLEWVSHISSNGRFTYYADSVKGRFTISRDNSKNMLYLRMNSLRAEDTAVYYCAETSGYYEYWGQGTLVTVSS
B8: BMS2h-758-3 (other)
VH: EVQLLESGGGLVQPGGSLRLSCAASGFTFGDYGMNWVRQAPGKGLEWVSHISSNGRFTYYADSVKGRFTISRDNSKNTLYLQMNSLRAEDTAVYYCAETSSYFEYWGQGTLVTVSS
B9: BMS2h-747 (other)
VH: EVQLLESGGGLVQPGGSLRLSCAASGFTFDDGTMGWARQAPGKGLEWVSLILPSGSRTYYADSVKGRFTISRDNSKNTLYLQMNSLRAEDTAVYYCAKHSLTNRPFDYWGQGTLVTVSS
B10: BMS2h-781 (other)
VH: EVQLLESGGGLVQPGGSLRLSCAASGFTFTDYTMYWVRQAPGKGLEWVSKISPSGRSTYYADSVKGRFTISRDNSKNTLYLQMNSLRAEDTAVYYCAKDPFGFDYWGQGTLVTVSS
B11: BMS2h-754 (other)
VH: EVQLLESGGGLVQPGGSLRLSCAASGFTFSRYDMVWVRQAPGKGLEWVSRINSMGLATYYADSVKGRFTISRDNSKNTLYLQMNSLRAEDTAVYYCAKDYSVAPHGYPLGFDYWGQGTLVTVSS
B12: BMS2h-774 (other)
VH: EVQLLESGGGLVQPGGSLRLSCAASGFTFREYDMGWVRQAPGKGLEWVSLISPPGRTTYYADSVKGRFTISRDNSKNTLYLQMNSLRAEDTAVYYCAKVVILGYTNRFDYWGQGTLVTVSS
B13: BMS2h-785 (other)
VL: DIQMTQSPSSLSASVGDRVTITCRASQPIYGWLNWYQQKPGKAPKLLIYLTSGLQSGVPSRFSGSGSGTDFTLTISSLQPEDFATYYCQQIHSSPFTFGQGTKVEIKR
B14: BMS2h-780 (other)
VH: EVQLLESGGGLVQPGGSLRLSCAASGFTFGSYTMMWVRQAPGKGLEWVSEIDRTGERTYYADSVKGRFTISRDNSKNTLYLQMNSLRAEDTAVYYCAEPGFASLPFDYWGQGTLVTVSS
B15: BMS2h-745 (other)
VH: EVQLLESGGGLVQPGGSLRLSCAASGFTFDNTEMAWVRQAPGKGLEWVSGIIEDGNRTYYADSVKGRFTISRDNSKNTLYLQMNSLRAEDTAVYYCAKIRNLHWDVGRQFDYWGQGTLVTVSS
B16: BMS2h-745-1 (other)
VH: EVQLLESGGGLVQPGGSLRLSCAASGFTFDNTEMAWVRQAPGKGLEWVSGITEDGNRTYYADSVKGRFTISRDNSKNTLYLQMNSLRAEDTAVYYCAKIRNLHWDVGRQFDYWGQGTLVTVSS
B17: BMS2h-745-2 (other)
VH: EVQLLESGGGLVQPGGSLRLSCAASGFTFDNTEMAWVRQAPGKGLEWVSGISEDGNRTYYADSVKGRFTISRDNSKNTLYLQMNSLRAEDSAVYYCAKIRNLHWDVGRQFVYWGQGTLVTVSS
B18: BMS2h-745-13 (other)
VH: EVQLLESGGGLVQPGGSLRLSCAASGFTFDNTEMAWIRQAPGKGLEWVSGIIEDGNRTYYADSVKGRFTISRDNSKNTLYLQMNSLRAEDTAVYYCAKIRNLHWDVGRQFDYWGQGTLVTVSS
B19: BMS2h-746 (other)
VH: EVQLLESGGGLVQPGGSLRLSCAASGFTFGSAEMGWVRQAPGKGLEWVSGISRPGQVTYYADSVKGRFTISRDNSKNTLYLQMNSLRAEDTAVYYCAKIRNLHWDVGRQFDYWGQGTLVTVSS
B20: BMS2h-745-9 (other)
VH: EVQLLESGGGSVQPGGSLRLSCAASGFTFDNTEMAWVRQAPGKGLEWVSGITEDGNRTYYADSVKGRFTISRDNSKNTLYLQMNSLRAEDTAVYYCAKIRNLHWDVGRQFVYWGQGTLVTVSS
B21: BMS2h-745-14 (other)
VH: EVQLLESGGGLVQPGGSLRLSCAASGFTFDNTEMAWIRQAPGKGLEWVSGITEDGNRTYYADSVKGRFTISRDNSKNTLYLQMNSLRAEDTAVYYCAKIRNLHWDVGRQFDYWGQGTLVTVSS
B22: BMS2h-784 (other)
VH: EVQLLESGGGLVQPGGSLRLSCAASGFTFDRAGMGWVRQAPGKGLEWVSLIGRGGDITYYADSVKGRFTISRDNSKNTLYLQMNSLRAEDTAVYYCAKIRNLHWDVGRQFDYWGQGTLVTVSS
B23: BMS2h-765 (other)
VH: EVQLLESGGGLVQPGGSLRLSCAASGFTFSAYTMEWVRQAPGKGLEWVSSIGVTGYDTYYADSVKGRFTISRDNSKNTLYLQMNSLRAEDTAVYYCAKGGQGFDYWGQGTLVTVSS
B24: BMS2h-775 (other)
VH: EVQLLESGGGLVQPGGSLRLSCAASGFTFPNYGMLWVRQAPGKGLEWVSSINSSGMETYYADSVKGRFTISRDNSKNTLYLQMNSLRAEDTAVYYCAKFFRLNDHNSVFGFDYWGQGTLVTVSS
B25: BMS2h-766 (other)
VH: EVQLLESGGGLVQPGGSLRLSCAASGFTFGDYGMSWVRQAPGKGLEWVSYIDPLGRLTYYADSVKGRFTISRDNSKNTLYLQMNSLRAEDTAVYYCAEDLSSLQYGVSPNFDYWGQGTLVTVSS
B26: BMS2h-783 (other)
VH: EVQLLESGGGLVQPGGSLRLSCAASGFTFRDYDMGWVRQAPGKGLEWVSTISPLGHFTYYADSVKGRFTISRDNSKNTLYLQMNSLRAEDTAVYYCAKSGFHEYTEGFDYWGQGTLVTVSS
B27: BMS2h-437 (other)
VL: DIQMTQSPSSLSASVGDRVTITCRASTPIGTMLDWYQQKPGKAPKLLIGHSSWLQSGVPSRFSGSGSGTDFTLTISSLQPEDFATYYCGQHVRPPATFGQGTKVEIKR
B28: BMS2h-731 (other)
VL: DIQMTQSPPSLSASVGDRVTITCRASQLISSHLDWYQQKPGKAPKLLVYDASELQSGVPSRFSGSGSGTDFTLTISSLQPEDFATYYCQQHRSLPFTFGQGTKVEIKR
B29: BMS2h-752 (other)
VH: EVQLLESGGGLVQPGGSLRLSCAASGFTFSDYAMAWVRQAPGKGLEWVSRIGVEGGDTYYADSVKGRFTISRDNSKNTLYLQMNSLRAEDTAVYYCAKLLRLYRLGFDYWGQGTLVTVSS
B30: BMS2h-782 (other)
VH: EVQLLESGGGLVQPGGSLRLSCAASGFTFDDAEMFWVRQAPGKGLEWVSSIDARGLTTYYADPVKGRFTISRDNSKNTLYLQMNSLRAEDTAVYYCAEATSAMYPFDYWGQGTLVTVSS
B31: BMS2h-492 (other)
VL: DIQMTQSPSSLSASVGDRVTITCRASQAIELNLEWYQQKPGKAPKLLIYDASMLQSGVPSRFSGSGSGTDFTLTISSLQPEDFATYYCQQYDVYPPTFGQGTKVEIKR

Values joined by “and” are separate entries in the source; they are usually repeats but may differ in a detail not shown here. Equal entries are not always repeated.

In this assay the target is T1, human isoleucine zipper-CD40L (IZ-hCD40L) (human, UniProt P29965 113-261).
T1 sequence: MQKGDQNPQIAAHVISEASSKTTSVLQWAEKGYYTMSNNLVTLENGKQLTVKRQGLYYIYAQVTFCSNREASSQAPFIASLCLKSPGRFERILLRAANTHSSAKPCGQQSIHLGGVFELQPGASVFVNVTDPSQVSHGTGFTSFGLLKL
In words: cell-based or functional assay.
Regarding B1, the “hIZCD40L-driven Human B Cell Proliferation EC50” value was determined as 6.4 µM. B2: the “hIZCD40L-driven Human B Cell Proliferation EC50” value was greater than 7 µM. For B3 the value was 5.9 µM; for B4, greater than 7 µM. Consider B5, for which the “hIZCD40L-driven Human B Cell Proliferation EC50” value was greater than 7 µM. Take B6: the “hIZCD40L-driven Human B Cell Proliferation EC50” value is greater than 7 µM.

As for B7, the “hIZCD40L-driven Human B Cell Proliferation EC50” value was greater than 7 µM. Take B8: the “hIZCD40L-driven Human B Cell Proliferation EC50” value was greater than 7 µM. As to B9, the “hIZCD40L-driven Human B Cell Proliferation EC50” value is greater than 7 µM. Regarding B10, the “hIZCD40L-driven Human B Cell Proliferation EC50” value was greater than 7 µM.

For B11, the “hIZCD40L-driven Human B Cell Proliferation EC50” value came out at 6.6 µM. For B12 the value was greater than 7 µM; for B13, 3.7 µM and > 7 µM; for B14, greater than 7 µM. On to B15, for which the “hIZCD40L-driven Human B Cell Proliferation EC50” value is 6.4 µM and 3.5 µM and > 7 µM. In the case of B16, the “hIZCD40L-driven Human B Cell Proliferation EC50” value was greater than 7 µM.

As to B17, the “hIZCD40L-driven Human B Cell Proliferation EC50” value was greater than 7 µM.

On to B18, for which the “hIZCD40L-driven Human B Cell Proliferation EC50” value is greater than 7 µM.

On to B19, for which the “hIZCD40L-driven Human B Cell Proliferation EC50” value was greater than 7 µM. Take B20: the “hIZCD40L-driven Human B Cell Proliferation EC50” value was greater than 7 µM. For B21, the “hIZCD40L-driven Human B Cell Proliferation EC50” value was greater than 7 µM. Regarding B22, the “hIZCD40L-driven Human B Cell Proliferation EC50” value is greater than 4.7 µM. Consider B23, for which the “hIZCD40L-driven Human B Cell Proliferation EC50” value was greater than 7 µM.

Consider B24, for which the “hIZCD40L-driven Human B Cell Proliferation EC50” value was greater than 7 µM. Turning to B25, the “hIZCD40L-driven Human B Cell Proliferation EC50” value is greater than 7 µM. For B26, the “hIZCD40L-driven Human B Cell Proliferation EC50” value is greater than 2 µM. For B27 the value was 5.7 µM. In the case of B28, the “hIZCD40L-driven Human B Cell Proliferation EC50” value was found to be 5.8 µM. Under B29 stands greater than 7 µM. As to B30, the “hIZCD40L-driven Human B Cell Proliferation EC50” value was greater than 7 µM. With B31, the “hIZCD40L-driven Human B Cell Proliferation EC50” value was greater than 7 µM.
